The term Kd denotes a measure of binding affinity in units of concentration. Read a low Kd as a tighter complex. The term EC50 denotes the concentration giving half of the maximal effect.

Substitutions are numbered along the chain they refer to. Names may count otherwise.

From US20160194407A1 (AstraZeneca / MedImmune, published 2016) come the findings set out here.

The target of assay [1] is T1, cynomolgus CD73 extracellular domain (ECD) (cynomolgus).
T1 construct: extracellular domain; also called Cynomolgus CD73 ECD; cyno CD73 (SPR Proteon)
Description: SPR (Proteon), IgG1-TM.

The target of assay [2] is T2, human CD73 on cells (human, UniProt P21589 27-549).
T2 sequence: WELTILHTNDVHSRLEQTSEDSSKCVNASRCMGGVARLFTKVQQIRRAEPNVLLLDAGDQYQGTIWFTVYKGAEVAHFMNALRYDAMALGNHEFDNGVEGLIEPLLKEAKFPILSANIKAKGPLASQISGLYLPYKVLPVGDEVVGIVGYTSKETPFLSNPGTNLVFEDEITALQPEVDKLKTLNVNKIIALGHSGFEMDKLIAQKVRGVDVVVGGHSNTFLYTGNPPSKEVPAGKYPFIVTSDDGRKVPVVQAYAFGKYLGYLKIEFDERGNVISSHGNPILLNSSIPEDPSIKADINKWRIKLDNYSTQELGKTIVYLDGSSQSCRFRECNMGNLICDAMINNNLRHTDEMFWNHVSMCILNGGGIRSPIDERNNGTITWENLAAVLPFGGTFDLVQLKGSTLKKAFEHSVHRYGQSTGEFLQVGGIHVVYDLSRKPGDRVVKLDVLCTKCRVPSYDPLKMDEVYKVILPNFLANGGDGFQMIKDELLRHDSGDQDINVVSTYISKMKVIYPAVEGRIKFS
Nature of the assay: cell-based or functional assay.

Assay [3] has as its target cynomolgus CD73 (form not stated) (cynomolgus). Nature of the assay: Binding, Cyno; assay not described.
The target of assay [4] is T3, recombinant human CD73 protein (form not stated) (human, UniProt P21589 27-549).
T3 construct: also called huCD73; rCD73
T3 sequence: T2 sequence
Description: assay and target not stated in Table 11 (taken as human CD73).

In the next assay the target is T4, cynomolgus CD73 on cells (cynomolgus).
T4 construct: whole, on cells; also called native CD73 on MK-1 cells (cynomolgus)
Description: flow cytometry on MK-1 cells, IgG1-TM.

Assay [5] addresses T2, human CD73 on cells. Description: cell-based or functional assay. The source holds these as a separate data set.

B1: CD730010 antibody (antibody, IgG1, V domains shown)
VH: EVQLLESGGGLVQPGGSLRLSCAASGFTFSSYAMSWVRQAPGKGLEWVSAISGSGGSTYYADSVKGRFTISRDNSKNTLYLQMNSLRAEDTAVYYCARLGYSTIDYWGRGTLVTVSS
VL: LPVLTQPPSVSGTPGQRVTISCSGSLSNIGRNPVNWYKQVPGTAPKLLIYLNNQRPSGVPDRFSGSKSGTSASLAISGLQSEDEADYYCATWDDSLNGWLFGGGTKLTVL
notes: IgG1; tested as IgG1-TM (L234F, L235E, P331S); also called clone 10
With B1, in assay [1], binding was put at a Kd of 1920 pM. Besides, in the assay with human CD73 on cells [2], the “FabZAP internalization, EC50, MDA-MB-231” value amounted to 158 pM and the “FabZAP internalization, max toxicity, MDA-MB-231” value came out at 84%. The 1/EC50 in assay [3] worked out at 0.0033 nM⁻¹. For the same molecule, the EC50 in assay [4] came to 69000 pM.

B2: CD730010 GL10 (antibody, V domains shown)
VH: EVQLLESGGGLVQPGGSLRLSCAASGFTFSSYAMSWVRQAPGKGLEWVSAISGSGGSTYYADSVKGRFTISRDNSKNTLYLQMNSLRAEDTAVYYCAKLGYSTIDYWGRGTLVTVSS
VL: B1 VL
Turning to B2, in assay [4], the EC50 worked out at 205000 pM.

B3: G10 (antibody, IgG1, V domains shown)
VH: EVQLLESGGGLVQPGGSLRLSCAASGFTFSSYAYSWVRQAPGKGLEWVSAISGSWGRTYYADSVKGRFTISRDNSKNTLYLQMNSLRAEDTAVYYCARLGYSTIDLWGRGTLVTVSS
VL: B1 VL with L1Q, P2S, V10A, P33D, K38Q, V40L, P56L, S57G, N97K
notes: also called clone 10 G10
On to B3, for which the Kd in the assay with cynomolgus CD73 on cells was found to be 258 pM.

B4: C2 (antibody, IgG1, V domains shown)
VH: B3 VH with A50L, S52W, R57S, L106M
VL: B1 VL with L1Q, P2S, V10A, K38Q, V40L, N52D, Q54L, P56L, S57G, N97K
notes: also called clone 10 C2
B4 yielded an equilibrium dissociation constant (Kd) in the assay with cynomolgus CD73 on cells of 105 pM.

B5: C1 (antibody, IgG1, V domains shown)
VH: B3 VH with W55G, R57S, L106K
VL: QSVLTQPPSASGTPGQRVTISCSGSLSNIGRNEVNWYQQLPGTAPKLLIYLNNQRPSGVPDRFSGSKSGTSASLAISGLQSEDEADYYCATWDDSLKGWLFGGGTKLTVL
notes: also called clone 10 C1
B5: the values for the Kd (in assay [1]; in the assay with cynomolgus CD73 on cells) were 12 pM and 160 pM, respectively.

B6: 73combo2 (C2 + GRVE + HPT) (antibody, IgG1, V domains shown)
VH: B3 VH with A50L, S52W, R57S, S102G, T103R, I104V, L106E
VL: QSVLTQPPSASGTPGQRVTISCSGSLSNIGRNPVNWYQQLPGTAPKLLIYLDNLRLGGVPDRFSGSKSGTSASLAISGLQSEDEADYYCATWDDSHPGWTFGGGTKLTVL
notes: also called clone 10 combo2
Take B6: binding with cynomolgus CD73 on cells was put at a Kd of 74 pM.

B7: CD730008 antibody (antibody, IgG1, V domains shown)
VH: EVQLLETGGGLVQPGGSLRLSCAASGFTFSSYAMSWVRQAPGKGLEWVSAISGSGGSTYYADSVKGRFTISRDNSKNTLYLQMNSLRAEDTAVYYCARGNYGNLDHWGKGTLVTVSS
VL: QSVLTQPPSVSVSPGQTASITCSGDKVGDKYASWYQQKPGQSPVLVIYQDRKRPSGIPERFSGSNSGNTATLTISGTQPMDEADYYCQAWDSSHWVFGGGTKLTVL
As to B7, the “1/EC50, Enzyme Inhibition, MDA-MB-231” value with human CD73 on cells [5] came out at 0.011 nM⁻¹. In assay [3], this molecule had a 1/EC50 of 0.0011 nM⁻¹.

B8: 73combo5 (G10 + GRVE + HPT) (antibody, IgG1, V domains shown)
VH: B3 VH with S102G, T103R, I104V, L106E
VL: B6 VL with P33D, D52N, L54Q
notes: also called clone 10 combo5
B8: the Kd with cynomolgus CD73 on cells was 78 pM.

B9: CD730002 antibody (antibody, IgG1, V domains shown)
VH: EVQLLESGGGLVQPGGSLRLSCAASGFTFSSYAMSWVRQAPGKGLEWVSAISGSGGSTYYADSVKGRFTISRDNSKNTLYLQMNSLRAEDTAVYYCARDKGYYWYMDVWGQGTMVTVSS
VL: B7 VL with S19T, Q49E, R51T, G56R, P79A, M80L, Y86F, S92T, H94F
notes: IgG1; tested as IgG1-TM; also called clone 2
Turning to B9, the Kd is 15 pM in assay [1] and 52 pM in the assay with cynomolgus CD73 on cells. Further, in assay [3], the 1/EC50 amounted to 0.2 nM⁻¹.

B10: CD730002 2C5 (antibody, IgG1, V domains shown)
VH: EVQLLESGGGLVQPGGSLRLSCAASGFTFSSYAMSWVRQAPGKGLEWVSAISGSGGSTYYADSVKRRFTISRDNSKNTLYLQMNSLRAEDTAVYYCARDKGYYWYMDVWGQGTMVTVSS
VL: B7 VL with Q49E, R51T, P54L, P79A, S92T, H94F
notes: IgG1; also called clone 2C5 antibody
Take B10: the values for the Kd (in assay [1]; with cynomolgus CD73 on cells) were 9 pM and 63 pM, respectively.

B11: 73combo1 (C1 + GRVE + HPT) (antibody, IgG1, V domains shown)
VH: B3 VH with W55G, R57S, S102G, T103R, I104V, L106E
VL: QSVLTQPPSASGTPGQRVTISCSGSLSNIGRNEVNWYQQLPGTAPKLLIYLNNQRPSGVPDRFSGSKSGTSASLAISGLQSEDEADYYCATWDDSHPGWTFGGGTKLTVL
notes: also called clone 10 combo1
With B11, the results for the Kd (in assay [1]; with cynomolgus CD73 on cells) were 8 pM and 90 pM, respectively.

B12: CD730004 antibody (antibody, IgG1, V domains shown)
VH: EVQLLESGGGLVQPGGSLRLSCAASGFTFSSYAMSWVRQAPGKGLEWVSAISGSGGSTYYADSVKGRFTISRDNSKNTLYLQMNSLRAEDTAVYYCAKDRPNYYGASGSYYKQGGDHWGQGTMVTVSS
VL: NFMLTQPHSVSESPGQTVTISCTRSSGSIASKYVQWYQKRPGSSPTTVIYEDTQRPSGVPDRFSGSIDISSNSASLTISGLRTEDEADYYCQSYDSTNWVFGGGTKVTVL
notes: IgG1
In the case of B12, the 1/EC50 in assay [3] was found to be 2e-06 nM⁻¹.

B13: CD730011 antibody (antibody, IgG1, V domains shown)
VH: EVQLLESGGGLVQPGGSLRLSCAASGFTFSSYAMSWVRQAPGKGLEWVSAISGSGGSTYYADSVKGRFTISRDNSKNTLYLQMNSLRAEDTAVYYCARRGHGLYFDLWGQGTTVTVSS
VL: NFMLTQPHSVSESPGKTVTISCTRSSGSIASKYVQWYQQRPGSSPMAVIYKDNQRSSGVPDRFSGSIDSSSNSASLTISGLKPEDEADYYCQSYDASNYYVFGTGTKVTVL
notes: IgG1; also called CD7300011
As to B13, the 1/EC50 in assay [3] was determined as 0.0027 nM⁻¹.

B14: CD730046 antibody (antibody, IgG1, V domains shown)
VH: QVQLVQSGGGVVQPGRSLRLSCAASGFTFSSYGMHWVRQAPGKGLEWVAVISYDGSIKYYADSVKGRFTISRDNSKNSLFLQMNSLRDDDTATYYCARGHLLRIGDIFYYSLDVWGQGTLVTVSS
VL: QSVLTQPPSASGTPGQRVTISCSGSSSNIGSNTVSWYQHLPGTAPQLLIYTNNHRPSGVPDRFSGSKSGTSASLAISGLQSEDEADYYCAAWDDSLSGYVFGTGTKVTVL
notes: IgG1
B14: the 1/EC50 in assay [3] is 0.01 nM⁻¹.

B15: CD730047 antibody (antibody, IgG1, V domains shown)
VH: EVQLVQSGGGVVQPGRSLRLSCAASGFTFSSYGMHWVRQAPGKGLEWVAVISYDGSIKYYADSVKGRFAISRDNAKNTLYLQMNSLRREDTAMYYCASGLTGVAGALGVWGRGTLVTVSS
VL: QSVLTQPPSASGAPGQRVTISCSGSSSNIGSNTVNWYQRLPGAAPQLLIYNNDQRPSGIPDRFSGSKSGTSGSLVISGLQSEDEADYYCAAWDDSLSGNVFGTGTKVTVL
notes: IgG1
For the molecule B15, in assay [3], the 1/EC50 turned out to be 0 nM⁻¹.

B16: CD730021 antibody (antibody, IgG1, V domains shown)
VH: QVQLQESGPGLVRPSETLSLTCTVSGGSISSSSYYWAWVRQSPGKGLEWIGNIYYRGSTYYNPSLKSRVTMSVDMSKHQFSLKLSSLNAADTAVYYCASLYSGTYVFDYWGRGTLVTVSS
VL: QSVLTQPPSASGTPGQRVTISCSGSRPNIGGNTVNWYQQLPGAAPKLLIYSNSQRPSGVPDRFSGSKYGTSASLAISGLQSDDEADYYCGTWDDSLNGPVFGRGTKLTVL
notes: IgG1
Turning to B16, in assay [3], the 1/EC50 stood at 0.0012 nM⁻¹.

B17: CD730042 antibody (antibody, IgG1, V domains shown)
VH: GVQLVQSGGGLVQPGGSLRLSCAASGFTFSSYGMHWVRQAPGKGLEWVAVISYDGSIKYYADSVKGRFTISRDDSKNALYLQMNSLRAEDTAVYYCSTLSGSYGYFDYWGRGTLVTVSS
VL: QSVLTQPASVSGSPGQSITISCAGTSSDVGGYNYVSWYQQHPGKAPKLMIYEGSKRPSGVSNRFSGSKSGNTASLTISGLQAEDEADYYCSSYTTRSTRVFGGGTKLTVL
notes: IgG1
As to B17, in assay [3], the 1/EC50 came out at 0.0014 nM⁻¹.
